Results on three molecules are retold here after patent US12692294B2, “Engineered NRG-1 variants with improved selectivity toward ErbB4 but not against ErbB3” (Amgen Inc., priority 2021, dated 2026).

Where “and” joins values, the source holds several entries; their conditions need not be identical. Identical values can stand only once. Bounds are passed on as bounds.

As a reminder, the EC50 is the midpoint of the concentration-response curve.

The target of one assay is T1, ErbB3 (Rattus norvegicus, UniProt Q62799).
T1 construct: forming the ErbB2/ErbB4 complex in cardiomyocytes and the ErbB2/ErbB3 complex in Schwann cells; endogenous in cells; host or cells: rat Schwann cells
T1 sequence (Q62799 20-1339): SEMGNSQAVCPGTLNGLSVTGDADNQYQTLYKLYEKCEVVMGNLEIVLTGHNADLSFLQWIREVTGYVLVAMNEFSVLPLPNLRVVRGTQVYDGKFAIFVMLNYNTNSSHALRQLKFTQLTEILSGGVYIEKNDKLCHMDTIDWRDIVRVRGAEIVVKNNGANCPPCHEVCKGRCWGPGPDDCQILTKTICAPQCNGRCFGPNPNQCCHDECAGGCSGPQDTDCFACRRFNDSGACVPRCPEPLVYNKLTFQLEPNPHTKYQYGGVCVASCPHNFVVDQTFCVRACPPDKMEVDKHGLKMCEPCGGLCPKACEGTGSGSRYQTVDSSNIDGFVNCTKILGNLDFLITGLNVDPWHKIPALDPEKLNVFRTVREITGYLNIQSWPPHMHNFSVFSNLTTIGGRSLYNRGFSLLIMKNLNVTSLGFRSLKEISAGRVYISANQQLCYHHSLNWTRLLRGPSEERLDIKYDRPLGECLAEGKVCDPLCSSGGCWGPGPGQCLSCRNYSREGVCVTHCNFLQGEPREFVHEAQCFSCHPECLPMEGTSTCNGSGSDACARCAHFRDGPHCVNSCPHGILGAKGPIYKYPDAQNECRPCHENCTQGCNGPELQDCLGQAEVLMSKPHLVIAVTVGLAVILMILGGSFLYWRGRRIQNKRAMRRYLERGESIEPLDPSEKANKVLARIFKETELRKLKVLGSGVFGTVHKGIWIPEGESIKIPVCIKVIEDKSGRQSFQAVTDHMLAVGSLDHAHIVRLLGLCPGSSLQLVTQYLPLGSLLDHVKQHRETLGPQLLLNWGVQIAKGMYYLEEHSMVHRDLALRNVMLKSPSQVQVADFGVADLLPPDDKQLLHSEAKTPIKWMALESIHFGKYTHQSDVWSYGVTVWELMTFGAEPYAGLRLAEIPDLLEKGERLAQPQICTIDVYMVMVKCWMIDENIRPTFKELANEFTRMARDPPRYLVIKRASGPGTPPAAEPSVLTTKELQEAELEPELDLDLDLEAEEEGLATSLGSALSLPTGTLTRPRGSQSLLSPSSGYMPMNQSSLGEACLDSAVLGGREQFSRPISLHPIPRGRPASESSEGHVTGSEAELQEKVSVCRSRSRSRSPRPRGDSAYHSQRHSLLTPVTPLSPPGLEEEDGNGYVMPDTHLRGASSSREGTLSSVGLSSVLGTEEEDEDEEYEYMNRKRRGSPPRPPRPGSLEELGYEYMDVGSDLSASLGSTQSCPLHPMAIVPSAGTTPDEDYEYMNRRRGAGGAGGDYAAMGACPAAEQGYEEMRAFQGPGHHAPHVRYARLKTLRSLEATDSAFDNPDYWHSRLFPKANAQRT
T1 sequence (P06494 23-1257 partner): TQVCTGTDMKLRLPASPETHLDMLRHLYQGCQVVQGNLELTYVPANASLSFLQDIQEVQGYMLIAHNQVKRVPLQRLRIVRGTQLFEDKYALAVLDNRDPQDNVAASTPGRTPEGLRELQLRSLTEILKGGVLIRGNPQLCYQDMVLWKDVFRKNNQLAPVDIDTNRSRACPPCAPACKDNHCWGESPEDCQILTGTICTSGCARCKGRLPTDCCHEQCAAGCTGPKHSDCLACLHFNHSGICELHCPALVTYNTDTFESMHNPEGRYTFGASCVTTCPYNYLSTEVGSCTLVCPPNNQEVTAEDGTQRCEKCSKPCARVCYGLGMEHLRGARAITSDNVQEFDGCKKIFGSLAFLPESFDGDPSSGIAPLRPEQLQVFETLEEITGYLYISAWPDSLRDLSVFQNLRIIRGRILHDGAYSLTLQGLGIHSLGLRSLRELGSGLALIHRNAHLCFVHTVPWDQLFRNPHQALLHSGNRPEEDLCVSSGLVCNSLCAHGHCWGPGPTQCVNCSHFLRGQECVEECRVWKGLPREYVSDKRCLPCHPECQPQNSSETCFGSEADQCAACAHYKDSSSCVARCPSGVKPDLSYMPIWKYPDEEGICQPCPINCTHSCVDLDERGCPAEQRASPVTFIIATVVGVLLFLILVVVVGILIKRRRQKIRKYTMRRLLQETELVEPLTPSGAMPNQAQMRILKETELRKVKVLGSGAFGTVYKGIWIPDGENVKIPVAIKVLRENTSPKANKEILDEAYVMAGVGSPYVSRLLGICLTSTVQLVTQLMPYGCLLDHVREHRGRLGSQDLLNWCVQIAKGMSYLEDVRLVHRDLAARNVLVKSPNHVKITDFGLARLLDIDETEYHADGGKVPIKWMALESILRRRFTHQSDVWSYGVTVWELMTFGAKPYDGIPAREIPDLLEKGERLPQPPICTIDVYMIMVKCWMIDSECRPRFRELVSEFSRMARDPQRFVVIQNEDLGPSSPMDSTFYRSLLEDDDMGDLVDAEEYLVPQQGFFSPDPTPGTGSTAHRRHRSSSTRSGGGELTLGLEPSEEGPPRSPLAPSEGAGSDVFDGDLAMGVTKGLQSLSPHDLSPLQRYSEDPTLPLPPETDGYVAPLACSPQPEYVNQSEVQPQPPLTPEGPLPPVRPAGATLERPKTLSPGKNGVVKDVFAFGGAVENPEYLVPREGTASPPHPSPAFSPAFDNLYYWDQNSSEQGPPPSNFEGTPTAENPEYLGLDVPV
Nature of the assay: In vitro phosphorylation of Akt in rat Schwann cells. The format is cell-based. The note with it: Akt (Serine 473) phosphorylation, 15 minutes treatment. How it is done: (§1) In Vitro Phosphorylation of Akt in Neonatal Rat Cardiomyocytes and Rat Schwann Cells by Neuregulin Variants
(§2) Specificity of neuregulin variants towards cardiomyocytes (ErbB4) versus Schwann cells (ErbB3) was tested by measuring Akt activity generated by formation of the ErbB2/ErbB4 and ErbB2/ErbB3 complexes. Upon activation by neuregulin, the ErbB4 and ErbB3 receptors dimerize preferentially with the ErbB2 co-receptor, forming the ErbB2/ErbB4 complex in cardiomyocytes and the ErbB2/ErbB3 complex in Schwann cells, both of which signal through the Akt pathway. Neonatal rat cardiomyocytes were isolated from hearts of Sprague Dawley rat pups at 0 to 4 days old according to manufacturer's protocol using the Neomyt kit and plated on Surecoat plates in NS media containing serum (all from Cellultron Life Technologies, Baltimore, MD). Rat Schwann cells were plated in Poly-D-Lysine coated plates with Dulbecco's modified Eagle's media (DMEM) supplemented with fetal bovine serum (Thermo Fisher) and forskolin (Millipore Sigma).
(§3) After a 24-hour incubation in a humidified incubator maintained at 37° C. and 5% CO2, cardiomyocytes and Schwann cells were washed with serum free media and incubated an additional 16 hours in DMEM supplemented with bovine serum albumin (Sigma). Both cell lines were then treated with titrations of the neuregulin variant molecules for 15 minutes, upon which cells were lysed in lysis buffer (Meso Scale Discovery (MSD)). For detection of Akt phosphorylation, lysates were added to the Multi-Spot 96-Well 4-Spot Phospho (Serine 473)/Total Akt plates (MSD), incubated according to the manufacturer's protocol and read in the SECTOR Imager 6000 (MSD). For both cell assays, the percent phosphorylation of Akt was calculated by multiplying the phospho Akt signal by 2, then dividing by the phospho Akt signal added to the total Akt signal and then multiplying by 100. The phosphorylation of Akt data points were fitted using a log (agonist) versus response, variable slope (4 parameters) analysis in GraphPad Prism to generate EC50 curves. The CM % agonism reflect the top value of the data points.

Another assay addresses T2, ErbB4 (Rattus norvegicus, UniProt Q62956).
T2 construct: forming the ErbB2/ErbB4 complex in cardiomyocytes and the ErbB2/ErbB3 complex in Schwann cells; endogenous in cells; host or cells: primary neonatal rat cardiomyocytes (Sprague Dawley pups, 0 to 4 days old)
Nature of the assay: In vitro phosphorylation of Akt in neonatal rat cardiomyocytes. The format is cell-based. As to conditions: for EC50: Akt (Serine 473) phosphorylation, neonatal rat cardiomyocytes, 15 minutes treatment, read-out: Cardiomyocyte (CM) (ErbB4) Avg EC50; for Selectivity SC/CM: ratio of EC50s Schwann cells/cardiomyocytes; for CM % Agonism AVG: top value of the Akt phosphorylation data points in cardiomyocytes, wild-type control 100. How it is done: as §1, §2, §3

T2 sequence (Q62956 26-1308): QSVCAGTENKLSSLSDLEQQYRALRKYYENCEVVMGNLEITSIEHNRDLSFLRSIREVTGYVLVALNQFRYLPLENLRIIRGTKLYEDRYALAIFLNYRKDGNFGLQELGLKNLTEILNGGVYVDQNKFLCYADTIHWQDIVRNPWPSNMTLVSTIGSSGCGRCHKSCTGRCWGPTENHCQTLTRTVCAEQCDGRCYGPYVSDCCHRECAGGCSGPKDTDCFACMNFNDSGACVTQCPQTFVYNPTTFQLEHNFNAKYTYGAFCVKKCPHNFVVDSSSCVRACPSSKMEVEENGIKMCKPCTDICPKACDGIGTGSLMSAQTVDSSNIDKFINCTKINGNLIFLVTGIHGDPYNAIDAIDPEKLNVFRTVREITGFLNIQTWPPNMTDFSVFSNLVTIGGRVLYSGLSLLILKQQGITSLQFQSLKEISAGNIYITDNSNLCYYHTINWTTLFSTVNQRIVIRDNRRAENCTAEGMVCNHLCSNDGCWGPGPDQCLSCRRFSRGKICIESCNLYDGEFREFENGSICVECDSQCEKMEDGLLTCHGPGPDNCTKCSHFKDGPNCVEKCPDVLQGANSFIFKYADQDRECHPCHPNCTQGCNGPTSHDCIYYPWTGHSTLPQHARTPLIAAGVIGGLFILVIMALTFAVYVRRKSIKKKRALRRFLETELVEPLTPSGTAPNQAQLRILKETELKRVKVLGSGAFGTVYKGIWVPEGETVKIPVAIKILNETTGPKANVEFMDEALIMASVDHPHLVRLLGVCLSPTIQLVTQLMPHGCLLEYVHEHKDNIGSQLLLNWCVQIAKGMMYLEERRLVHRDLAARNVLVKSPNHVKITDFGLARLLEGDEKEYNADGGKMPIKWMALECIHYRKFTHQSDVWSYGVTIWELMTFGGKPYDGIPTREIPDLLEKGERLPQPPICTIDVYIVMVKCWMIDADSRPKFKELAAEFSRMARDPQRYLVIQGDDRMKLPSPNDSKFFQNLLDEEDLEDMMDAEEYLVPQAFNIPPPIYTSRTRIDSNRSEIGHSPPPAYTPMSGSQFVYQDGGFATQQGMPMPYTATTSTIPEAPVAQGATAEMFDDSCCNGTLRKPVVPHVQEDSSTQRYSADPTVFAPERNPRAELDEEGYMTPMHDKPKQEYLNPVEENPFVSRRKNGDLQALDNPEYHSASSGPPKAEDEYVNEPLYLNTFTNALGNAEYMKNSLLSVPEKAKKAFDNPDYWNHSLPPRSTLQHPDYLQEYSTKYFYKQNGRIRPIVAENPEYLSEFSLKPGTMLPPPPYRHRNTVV
T2 sequence (P06494 23-1257 partner): as the sequence (P06494 23-1257 partner) above

B1: :huFcSEFL2(desK)vl31(+):G4SG4:huNRG1(S177-Q237)(NRGE1C): N-terminal Fc fusion of NRG1 variant SEQ ID NO:124 (protein)
chain: DKTHTCPPCPAPELLGGPSVFLFPPKPKDTLMISRTPEVTCVVVDVSHEDPEVKFNWYVDGVEVHNAKTKPCEEQYGSTYRCVSVLTVLHQDWLNGKEYKCKVSNKALPAPIEKTISKAKGQPREPQVYTLPPSREKMTKNQVSLTCLVKGFYPSDIAVEWESNGQPENNYKTTPPVLKSDGSFFLYSKLTVDKSRWQQGNVFSCSVMHEALHNHYTQKSLSLSPGGGGGSGGGGSHLVKCGEKHKSFCVNGGECFMIEGPSNPSRYLCKCPNEFTGDRCQEDFMASFYKAEELYQDKTHTCPPCPAPELLGGPSVFLFPPKPKDTLMISRTPEVTCVVVDVSHEDPEVKFNWYVDGVEVHNAKTKPCEEQYGSTYRCVSVLTVLHQDWLNGKEYKCKVSNKALPAPIEKTISKAKGQPREPQVYTLPPSREEMTENQVSLTCLVEGFYPSDIAVEWESNGQPENNYETTPPVLDSDGSFFLYSDLTVDKSRWQQGNVFSCSVMHEALHNHYTQKSLSLSPGK
modifications: huFcSEFL2(desK)v131(+)G4SG4huNRG1(S177-Q237) (NRGE1C)
For B1, the “Schwann cells (SC) (ErbB3) Avg EC50 (M)” value with ErbB3 is “inactive”. In addition, in the assay with ErbB4, the EC50 was 0.3 nM, the “Selectivity SC/CM” value is on record as greater than 10000 and the “CM % Agonism AVG” value amounted to 85.4%.

B2: :huFcSEFL2(desK)vl31(+):G4SG4:huNRG1(S177-Q237)(NRGE1D): N-terminal Fc fusion of NRG1 variant SEQ ID NO:131 (protein)
chain: DKTHTCPPCPAPELLGGPSVFLFPPKPKDTLMISRTPEVTCVVVDVSHEDPEVKFNWYVDGVEVHNAKTKPCEEQYGSTYRCVSVLTVLHQDWLNGKEYKCKVSNKALPAPIEKTISKAKGQPREPQVYTLPPSREKMTKNQVSLTCLVKGFYPSDIAVEWESNGQPENNYKTTPPVLKSDGSFFLYSKLTVDKSRWQQGNVFSCSVMHEALHNHYTQKSLSLSPGGGGGSGGGGSHLVKCGESHKSFCVNGGECYMVEGSSIPSRYLCKCPNEFTGDRCQEDFMASFYKAEELYQDKTHTCPPCPAPELLGGPSVFLFPPKPKDTLMISRTPEVTCVVVDVSHEDPEVKFNWYVDGVEVHNAKTKPCEEQYGSTYRCVSVLTVLHQDWLNGKEYKCKVSNKALPAPIEKTISKAKGQPREPQVYTLPPSREEMTENQVSLTCLVEGFYPSDIAVEWESNGQPENNYETTPPVLDSDGSFFLYSDLTVDKSRWQQGNVFSCSVMHEALHNHYTQKSLSLSPGK
modifications: huFcSEFL2(desK)v131(+)G4SG4huNRG1(S177-Q237) (NRGE1D)
Regarding B2, the “Schwann cells (SC) (ErbB3) Avg EC50 (M)” value with ErbB3 is “inactive”. Also, in the assay with ErbB4, the EC50 stood at 0.23 nM, the “Selectivity SC/CM” value was greater than 10000 and the “CM % Agonism AVG” value was found to be 88.7%.

B3: Wild-type as control: wild-type neuregulin sequence used as control in the Akt assays; construct not specified (wild-type fragment: SEQ ID NO: 112) (protein)
chain: SHLVKCAEKEKTFCVNGGECFMVKDLSNPSRYLCKCPNEFTGDRCQNYVMASFYKAEELYQ
modifications: chains of the parent or of the whole protein
Consider B3, for which the EC50 in the assay with ErbB4 is 0.15 nM and 0.154 nM and 0.28 nM and 0.253 nM.
